# Assay results reported in patent publication US20150203579A1 (Regeneron, published 2015).
# T1: recombinant cynomolgus monkey PD-1 expressed with a C-terminal myc-myc-hexahistidine tag (cynomolgus monkey (Macaca fascicularis))
# T1 construct: monomeric; also called MfPD-1-MMH
# T1 chain: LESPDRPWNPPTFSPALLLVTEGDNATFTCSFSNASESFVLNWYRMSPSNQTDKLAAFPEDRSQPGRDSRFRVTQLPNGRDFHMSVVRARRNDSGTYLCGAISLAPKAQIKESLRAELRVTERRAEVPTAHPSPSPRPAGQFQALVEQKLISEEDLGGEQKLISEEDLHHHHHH
# T2: monkey PD-1 with mFc (monkey)
# T2 construct: also called monkey PD-1-mFc; monkey PD-1 dimer
# T2 chain: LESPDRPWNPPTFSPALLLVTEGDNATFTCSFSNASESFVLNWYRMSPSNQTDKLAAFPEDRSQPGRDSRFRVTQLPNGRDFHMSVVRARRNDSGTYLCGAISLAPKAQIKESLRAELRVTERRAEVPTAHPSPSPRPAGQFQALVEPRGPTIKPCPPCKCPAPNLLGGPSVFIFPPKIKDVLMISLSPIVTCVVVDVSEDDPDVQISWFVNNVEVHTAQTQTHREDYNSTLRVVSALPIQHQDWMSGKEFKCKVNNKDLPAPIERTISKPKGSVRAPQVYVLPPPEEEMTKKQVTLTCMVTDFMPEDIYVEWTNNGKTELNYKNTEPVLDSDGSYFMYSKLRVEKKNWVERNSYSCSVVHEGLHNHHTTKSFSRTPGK
# What was measured:
# [1] = target: T3, human PD-1 dimer (human PD-1-mFc or human PD-1-hFc) (human, UniProt Q15116 25-170); assay: SPR, mAb captured, 37C;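 also: Real-time Biacore biosensor, PD-1 dimer flowed over anti-PD-1 antibody surface, rate constants fitted to a 1:1 model, KD derived as kd/ka and t½ as ln2/(60·kd)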
# T3 construct: also called hPD-1-mFc; hPD1-hFc
# [2] = target: T3, human PD-1 dimer (human PD-1-mFc or …); assay: SPR, mAb captured, 25C
# [3] = target: T4, recombinant human PD-1 expressed with a C-terminal myc-myc-hexahistidine tag (human); assay: SPR, mAb captured, 37C;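 also: rate constants from fitting sensorgrams to a 1:1 binding model, KD derived as kd divided by ka and half-life as ln2/(60·kd)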
# T4 construct: monomeric; also called hPD-1-MMH; human PD-1-MMH
# [4] = target: T1, recombinant cynomolgus monkey PD-1 …; assay: SPR, mAb captured, 37C;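 also: rate constants from fitting sensorgrams to a 1:1 binding model, with Kd computed as koff/kon and half-life as ln2/(60·koff), PD-1 flowing over anti-PD-1 antibody surfaces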
# [5] = target: T1, recombinant cynomolgus monkey PD-1 …; assay: SPR, mAb captured, 25C
# [6] = target: T5, recombinant human PD-1 expressed with a C-terminal human IgG1 Fc tag (human); assay: SPR Biacore 3000: 100 nM hPD-1.hFc + 500 nM mAb to captured hPD-L1.mFc;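 also: inhibition study with anti-PD-1 mAbs, SPR responses tracked in real time and read at the close of each step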
# T5 construct: also called hPD-1-hFc; hPD1-hFc
# monkey PD-1 with mFc [7] = target: T2, monkey PD-1 with mFc; assay: SPR, captured mAb, 37 C;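 also: Real-time Biacore surface plasmon resonance biosensor readout of PD-1 reagent binding to purified anti-PD-1 monoclonal antibodies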
# monkey PD-1 with mFc [8] = target: T2, monkey PD-1 with mFc; assay: SPR, captured mAb, 25 C;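 also: purified anti-PD-1 antibodies tested on Biacore 4000 or T200 instruments, rate constants obtained via 1:1 binding model fit, with KD as kd/ka and half-life as ln2/(60·kd)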
# [9] = target: T6, recombinant human PD-L1 expressed with a C-terminal mouse IgG2a Fc tag (human); assay: SPR Biacore 3000: 500 nM mAb alone (no hPD-1.hFc) over captured hPD-L1.mFc surface, control
# T6 construct: also called hPD-L1-mFc; hPD-L1.mFc
# [10] = target: PD-1 chimera: extracellular domain of human PD-1 with trans-membrane and cytoplasmic domains of human CD300a, … (human, UniProt Q9UGN4 181-299, limits assumed); assay: cell-based or functional assay
# [11] = target: T7, full length human PD-1 on HEK293/hPD-1 cells (human, UniProt Q15116 25-288); assay: FACS, 100 nM mAb, HEK293/hPD-1 cells;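 also: antibodies incubated with cells for 15-30 min on ice, bound antibody detected through a secondary F(ab′)2 by flow cytometry, with parental HEK293 cells tested in parallel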
# [12] = target: T8, recombinant human PD-1 dimer expressed with a C-terminal mouse IgG2a Fc tag (human); assay: competition ELISA: 1.5 nM hPD-1-mFc to coated hPD-L1-hFc
# T8 construct: also called hPD-1-mFc
# [13] = target: T7, full length human PD-1 on HEK293/hPD-1 …; assay: FACS dose response, HEK293/hPD-1 cells
# [14] = target: T9, dimeric biotinylated human PD-1 protein with a C-terminal human Fc tag (human, biotinylated (sites not given)); assay: competition ELISA: 200 pM biot-hPD-1-hFc to coated hPD-L1-mFc
# T9 construct: also called biot-hPD-1-hFc
# [15] = target: T7, full length human PD-1 on HEK293/hPD-1 …; assay: FACS, 100 nM mAb
# [16] = target: T8, recombinant human PD-1 dimer expressed …; assay: BLI Octet: 100 nM hPD-1-mFc + 500 nM mAb to captured hPD-L1-hFc
Binder,% Blocking [6] [%],binding of the mixture (RU) [6] [RU],100 nM Monkey PD-1-mFc Bound (RU) (monkey PD-1 with mFc [7]),Kd (monkey PD-1 with mFc [7]) [nM],t1/2 (monkey PD-1 with mFc [7]) [min],100 nM Monkey PD-1-mFc Bound (RU) (monkey PD-1 with mFc [8]),Kd (monkey PD-1 with mFc [8]) [nM],t1/2 (monkey PD-1 with mFc [8]) [min],500 nM of anti-PD-1 monoclonal antibody (RU) [9] [RU],Emax mean [%] @ 100 nM [10] [%],MFI [11] [MFI],% blocking at 200 nM antibody [12] [%],IC50 [12] [nM],EC50 [13] [nM],Max Geom. Mean MFI @ 100 nM [13] [MFI],Concentration (M) of Antibody at 150% activation [10] [M],% blocking at 50 nM antibody [14] [%],IC50 [14] [nM],ratio of MFI HEK293/hPD-1 to HEK293 parental cells [15],also measured
"H4H7795N2 (antibody, human IgG4 S228P, kappa, V domains shown) VH: EVQVVESGGGLVEPGRSLRLSCKASGFTFDDYAMHWVRQTPGKALEWVSGISWSGNNIGYADSVKGRFTISKDDAKNSLYLQMNSLRPEDTALYYCTKDISITGTLDAFDVWGQGTMVTVSS VL: DIQMTQSPISVSASVGDRVTITCRASQGISNWLAWYQQKPGIAPKLLIYSASSLQSGVPSRFRGSGSGTDFTLTIGSLQPEDFATYYCQQAHSFPLTFGGGTKVEIKR",–,–,–,–,–,–,–,–,–,–,–,–,–,–,–,–,–,–,–,Kd [1]: 1.65 nM; koff [1]: 0.000264 s⁻¹; kon [1]: 160000 M⁻¹ s⁻¹; t½ [1]: 44 min; Kd [2]: 0.615 nM; koff [2]: 9.25e-05 s⁻¹; kon [2]: 150000 M⁻¹ s⁻¹; t½ [2]: 125 min; Kd [3]: 104 nM; koff [3]: 0.00664 s⁻¹; kon [3]: 64100 M⁻¹ s⁻¹; t½ [3]: 1.7 min; Kd [4]: 88.3 nM; koff [4]: 0.00689 s⁻¹; kon [4]: 78000 M⁻¹ s⁻¹; t½ [4]: 1.7 min; Kd [5]: 22.4 nM; koff [5]: 0.00148 s⁻¹; kon [5]: 65900 M⁻¹ s⁻¹; t½ [5]: 8 min
"H4xH8999P (antibody, V domains shown, human IgG4 Fc with 2 or more amino acid changes (US20100331527)) VH: QLQLQESGPGLVQPSETLSLTCTVSGDSISSTAYHWDWIRQPPGKGLEWIGTITYNGNTYFNPSLKSRVTISVDTSKNQFSLKLLSMTAAETAVFYCARHLGYNSDFFPFDFWGQGTLVTVSS VL: not shown",100,0,83,0.7,23,126,0.21,100,1,217,28900,88,1.3,–,–,–,–,–,–,–
"H4H7798N (antibody, human IgG4 S228P, kappa, V domains shown) VH: EVQLLESGGVLVQPGGSLRLSCAASGFTFSNFGMTWVRQAPGKGLEWVSGISGGGRDTYFADSVKGRFTISRDNSKNTLYLQMNSLKGEDTAVYYCVKWGNIYFDYWGQGTLVTVSS VL: DIQMTQSPSSLSASVGDSITITCRASLSINTFLNWYQQKPGKAPNLLIYAASSLHGGVPSRFSGSGSGTDFTLTIRTLQPEDFATYYCQQSSNTPFTFGPGTVVDFRR",–,–,–,–,–,–,–,–,–,–,–,–,–,–,–,–,–,–,–,Kd [1]: 0.175 nM; koff [1]: 0.000115 s⁻¹; kon [1]: 660000 M⁻¹ s⁻¹; t½ [1]: 100 min; Kd [2]: 0.122 nM; koff [2]: 5.4e-05 s⁻¹; kon [2]: 441000 M⁻¹ s⁻¹; t½ [2]: 214 min; Kd [3]: 7.48 nM; koff [3]: 0.0017 s⁻¹; kon [3]: 227000 M⁻¹ s⁻¹; t½ [3]: 7 min; Kd [4]: 10.5 nM; koff [4]: 0.00223 s⁻¹; kon [4]: 213000 M⁻¹ s⁻¹; t½ [4]: 5 min; Kd [5]: 3.86 nM; koff [5]: 0.000551 s⁻¹; kon [5]: 143000 M⁻¹ s⁻¹; t½ [5]: 21 min
"H4xH8992P (antibody, V domains shown, human IgG4 Fc with 2 or more amino acid changes (US20100331527)) VH: EVQLVESGGGLVQPGRSLRLSCVASGFALHDYAMHWVRQVPGKGLEWVSSISWNSGVIGYADSLKGRFTISRDNAKNSLYLQMNSLRAEDTALYYCAKGSGSYYVSWFDPWGQGTLVTVSS VL: not shown",–,2,86,4.38,8,122,1.24,46,3,178,17500,93,1.3,–,–,–,–,–,–,–
"H4H9019P (antibody, V domains shown, fully human; H4H prefix (human IgG4 Fc)) VH: EVQLVESGGGVVRPGGSLRLSCAASGFTFDDYGMSWVRQVPGKGLEWVSGISWNDGKTVYAESVKGRFIISRDNAKNSLYLEMNSLRAEDTALYYCARDWQYLIERYFDYWGQGTLVTVSS VL: not shown",–,-1,36,3.17,45,31,1.97,129,-2,180,8610,98,1.3,1.4,29200,1.79e-08,–,–,–,–
"H4xH9120P2 (antibody, V domains shown, human IgG4 Fc with 2 or more amino acid changes (US20100331527)) VH: QVQLVQSGAEVKRPGASVKVSCKASGYTFTSFYMYWVRQAPGQGLEWMGIINPSDGSTSNAQKFQGRVTMTRDTSTSTVYMELSSLRSEDTAVYYCARRVAGDIFDIWGQGTMVTVSS VL: not shown",100,0,46,6.06,23,52,1.91,104,1,166,9980,98,1,0.48,34100,1.1e-08,96,0.39,91.9,koff (monkey PD-1 with mFc [7]): 0.000502 s⁻¹; kon (monkey PD-1 with mFc [7]): 82900 M⁻¹ s⁻¹; koff (monkey PD-1 with mFc [8]): 0.000112 s⁻¹; kon (monkey PD-1 with mFc [8]): 58400 M⁻¹ s⁻¹
"H2aM7794N (antibody, V domains shown, human variable regions, mouse IgG2a Fc; also called H2M7794N) VH: QLQLQESGPDLVKPSDTLSLTCTVSDDSISSTTYYWAWIRQPPGKGLEWIGSMSYNGNNYYNPSLKSRVAISAGTSQKQFSLKLTSVTAADTAVYHCARHLGYNGNWYPFDFWGQGILVTVSS VL: not shown",–,–,–,–,–,–,–,–,–,170,19100,95,1.1,1.37,16400,4.09e-08,99,0.23,71,% Blocking [16]: 114%; binding of the mixture (nm) [16]: -0.01 nm
"H4xH9135P2 (antibody, V domains shown, human IgG4 Fc with 2 or more amino acid changes (US20100331527)) VH: EVQLVESGGSVVRPGGSLRLSCVVSGFTFEDYGLSWVRQIPGKGLEWVSGISWTGGNTGYADSVKGRFTISRDNAKNSLYLQMNSLRAEDTALYHCTRDRQWLMQWYFDYWGQGTLVTVSS VL: not shown",102,-3,52,2.32,15,74,0.602,81,-3,193,9380,97,1.1,0.105,32800,1.55e-09,96,0.15,82.2,koff (monkey PD-1 with mFc [7]): 0.000794 s⁻¹; kon (monkey PD-1 with mFc [7]): 342000 M⁻¹ s⁻¹; koff (monkey PD-1 with mFc [8]): 0.000143 s⁻¹; kon (monkey PD-1 with mFc [8]): 238000 M⁻¹ s⁻¹
